Laboratory results published in paper PMC6136348, “In the quest for new targets for pathogen eradication: the adenylosuccinate synthetase from the bacterium Helicobacter pylori” (Journal of Enzyme Inhibition and Medicinal Chemistry, 2018).

Molecular target: the molecule itself
Experiment: SEC; Sephacryl S-200 HR column calibrated with marker proteins; 50 mM phosphate buffer pH 6.5, 150 mM NaCl, 2 mM EDTA, 1 mM DTT, +4 °C; sample loaded at ~15 mg/mL total protein (second step of the purification)

B1: Helicobacter pylori adenylosuccinate synthetase (AdSS) (enzyme, Helicobacter pylori (strain ATCC 26695), UniProt P56137 1-411, looked up)
chain: MADVVVGIQWGDEGKGKIVDRIAKDYDFVVRYQGGHNAGHTIVHKGVKHSLHLMPSGVLYPKCKNIISSAVVVSVKDLCEEISAFEDLENRLFVSDRAHVILPYHAKKDAFKEKSQNIGTTKKGIGPCYEDKMARSGIRMGDLLDDKILEEKLNAHFKAIEPFKKAYDLGENYEKDLMGYFKTYAPKICPFIKDTTSMLIEANQKGEKILLEGAQGTLLDIDLGTYPFVTSSNTTSASACVSTGLNPKAINEVIGITKAYSTRVGNGPFPSEDTTPMGDHLRTKGAEFGTTTKRPRRCGWLDLVALKYACALNGCTQLALMKLDVLDGIDAIKVCVAYERKGERLEIFPSDLKDCVPIYQTFKGWEKSVGVRKLDDLEPNVREYIRFIEKEVGVKIRLISTSPEREDTIFL
notes: Adenylosuccinate synthetase (AdSS, EC 6.3.4.4), product of the purA gene of Helicobacter pylori strain ATCC 26695; amplified from genomic DNA with primers for the 5' and the 3' end of the gene; theoretical monomer mass 45,742.72 Da; Cloned between NdeI and XhoI of pET21b; The printed reverse primer appears to carry a stop codon before the XhoI site, so the vector's C-terminal His tag is probably …
stoichiometry N: 2
